Laboratory results published in patent US20240182596A1, “ANTI-NAPI2B ANTIBODIES AND ANTIBODY-DRUG-CONJUGATES BASED THEREON, THERAPEUTIC METHODS AND USES THEREOF” (Tubulis GmbH, priority 2022, published 2024).

Experiments:
FcγRIIa (CD32) (H131) = test: Lumit FcγRIIa (H131) Binding Immunoassay (Promega), left panel FcγRIIa (CD32) (H131), competition with Tracer-LgBiT, n=1
[1] = target: recombinant human FcRn (FcγRn-SmBiT, Lumit assay) (human) (UniProt P55899); test: Lumit FcRn Binding Immunoassay (Promega), competition with Tracer-LgBiT for FcRn-SmBiT, n=1
[2] = target: FcγRIIIa (CD16) (V158) (Homo sapiens) (UniProt P08637); test: Lumit FcγRIIIa (V158) Binding Immunoassay (Promega), left panel FcγRIIIa (CD16) (V158), competition with Tracer-LgBiT, n=1
Chain of FcγRIIIa (CD16) (V158) (Homo sapiens) (P08637 17-208 F176V limits assumed): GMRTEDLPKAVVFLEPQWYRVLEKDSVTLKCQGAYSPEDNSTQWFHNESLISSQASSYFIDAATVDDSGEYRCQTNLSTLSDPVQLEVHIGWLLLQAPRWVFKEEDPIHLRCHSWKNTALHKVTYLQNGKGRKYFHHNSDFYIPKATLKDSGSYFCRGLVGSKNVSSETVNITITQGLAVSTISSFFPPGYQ

Chain of FcγRIIa (CD32) (H131) (chain, as listed by the source limits assumed): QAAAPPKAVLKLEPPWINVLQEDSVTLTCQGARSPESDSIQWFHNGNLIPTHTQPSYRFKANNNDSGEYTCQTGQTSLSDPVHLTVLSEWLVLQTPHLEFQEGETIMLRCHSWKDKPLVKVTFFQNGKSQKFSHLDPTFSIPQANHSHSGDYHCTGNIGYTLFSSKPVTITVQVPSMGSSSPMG

- IC50 (read off the curve) (FcγRIIa (CD32) (H131)): 1 µg/mL
- IC50 (read off the curve) [1]: 2 µg/mL
- IC50 (read off the curve) [2]: 2 µg/mL
Substance: IgG1 positive control (standard of the Lumit FcγR Binding Immunoassays) (antibody)
